Results as given in PMC12703665, “A Trifunctional, Rare-Earth Theranostic Chelator Platform to Enable Diagnostic Nuclear Imaging, Surgical Resection, and Radiotherapy” (Journal of the American Chemical Society, 2025).
Read-outs that look alike come from different tables or passages of the source.

Legend:
[1] = tested on: PC-3 PIP/flu (PSMA+/PSMA–) tumor xenografts; experiment: in vivo
Method: (§1) For in vivo evaluation, athymic nude mice-bearing bilateral PC-3 PIP/flu (PSMA^+/PSMA^–) tumor xenografts were used (Figure ).
5.1.1 Urine metabolite analysis
Metabolite analysis was performed by analyzing aliquots of 100 µL of mouse urine collected during biodistribution studies. If the collected urine volume was less than 100 µL, 1X DPBS was added in order to bring it up to a final volume of 100 µL. In cases where the radioactivity present in urine decayed to levels too low for detection by HPLC, fractions eluted from the radioHPLC were collected every 30 seconds, and the amount of radioactivity was estimated via gamma counting (Hidex Automatic Gamma Counter). The chromatogram was then reconstructed by plotting the recorded counts per minute recorded for each fraction […]
5.2 In vitro optical imaging
Tumor tissues were harvested from male, nude, athymic mice bearing xenografts from PC3-PIP (PSMA+) and PC3-flu (PSMA-) were fixed for (24) hours in 10% neutral buffered formalin, processed and embedded into paraffin blocks. Tissues were sectioned at 5µm, dried and then deparaffinized with a 25-minute oven bake at 60°C, followed by a series of xylene and alcohol washes
Antigens were prepared in PerkinElmer’s 1X Antigen Retrieval pH 9.0 (AR900250ML) for 8 minutes in the microwave. Tissue sections were blocked with 1X Antibody Diluent/Block buffer (Akoya).
Ab-PSMA, natEu-pepa-pic2-C-Hex-KuE and DAPI staining.
Tissues were stained with Ab-PSMA (Ventana 760-6076; 11.75 µg/mL; 100uL per slide) for 30 minutes at room temperature. Slides were washed with TBS-T and secondary goat anti-rabbit was applied for 10 minutes at room temperature. Slides were washed with TBS-T and Akoya’s Opal dye 520 was applied for 10 minutes at room temperature. Antigen retrieval and blocking steps were performed again.
An aqueous solution of natEu-pepa-pic2-C-Hex-KuE (10 µM) was diluted at 1:1 with 1X Diluent/Block (Akoya) and 100 µL were applied per slide for 2 hours at room temperature. For DAPI staining, DAPI working solution (Akoya) was applied for 10 minutes at room temperature before mounting with ProLong™ Gold Antifade Mountant. Slides were imaged by Nuance Multispectral Scope at 20x objective.
5.3 In vivo biodistribution in PSMA +/- mice models, PET-CT and SPECT imaging.
Male, nude, athymic mice were purchased from Jackson Laboratory. Ten days preceding the imaging study, mice were implanted with 1 × 10^6 cells (PC-3 PIP on the right, PC-3 flu on the left shoulder) in 100 µL of a 1:2 mixture of DPBS 1X/matrigel matrix subcutaneously.
A solution of 100 µL of labeled radiotracer was administered via tail vein injection into 8–10-week-old male nude mice (n = 4 per cohort) bearing PSMA+/- tumors.
For biodistribution studies, mice were euthanized at 2 hours (n=4) post-injection of the radio tracer. Organs were extracted, intestinal content removed, and activity assessed via a gamma counter. Biodistribution analysis values are represented as percentage of injected dose per gram of organ weight (% ID/g).

[2] = tested on: PC-3 PIP/flu (PSMA+/PSMA–) tumor xenografts
Method: as §1
Representative PET-CT (Y-86) or SPECT (Lu-177, Tb-161) images were acquired at different time points starting as early as 0.5 h and up to 25-hours post administration of radiotracer. Mice were initially anesthetized with isoflurane gas at 4% isoflurane in oxygen and maintained during scans at 2.0%. PET-CT and SPECT images were normalized to units of percentage of injected dose per cubic centimeter and presented as maximum intensity projected scan (MIPS) images.
PET-CT scans were acquired in a Siemens Inveon Hybrid MicroPET/CT Scanner (Siemens Medical Solutions USA, Inc., Knoxville, TN), and image processing and region of interest (ROI) analysis conducted using the Inveon Research Workstation analysis software. ROI analysis of the PET/CT images was used to estimate tracer uptake in major organs or tissues, and quantitative results are given as percentage of injected dose per cubic centimeter (%ID/cc).
SPECT scans, on the other hand, were collected in a MILabs U-SPECT/CTUHR (ultra high-resolution) system and image processing was carried out using Imalytics preclinical image analysis software.

[3] = mouse, in vivo
[4] = 2 h post injection, n = 4, listed as [86Y]YIII-pepa-pic2-C-Hex-KuE

COCCOCCOCCOc1ccc(C#Cc2cc(CN3CCN(Cc4cccc(C(=O)O)n4)CCN(Cc4cc(SC[C@H](N)C(=O)NCCCCCC(=O)NCCCC[C@H](NC(=O)N[C@@H](CCC(=O)O)C(=O)O)C(=O)O)cc(C(=O)O)n4)CC3)nc(C(=O)O)c2)cc1 [[86Y]Y-pepa-pic2-C-Hex-KuE, metal not drawn]
Blood [1, 4]: 1.22 ± 1.01 % ID/g
Bone [1, 4]: 0.74 ± 0.21 % ID/g
Heart [1, 4]: 0.54 ± 0.25 % ID/g
Large Intestine [1, 4]: 1.64 ± 0.79 % ID/g
Liver [1, 4]: 1.00 ± 0.32 % ID/g
Lungs [1, 4]: 1.96 ± 0.84 % ID/g
Muscle [1, 4]: 0.35 ± 0.13 % ID/g
Small Intestine [1, 4]: 0.59 ± 0.25 % ID/g
Spleen [1, 4]: 2.43 ± 1.34 % ID/g
Tumor + ([1]; PSMA+ tumor, 2 h post injection, n = 4, listed as [86Y]YIII-pepa-pic2-C-Hex-KuE): 12.53 ± 2.95 % ID/g
Tumor - ([1]; PSMA- tumor, 2 h post injection, n = 4, listed as [86Y]YIII-pepa-pic2-C-Hex-KuE): 1.20 ±0.45 % ID/g
enhancement of probe localization in kidneys compared to tumor tissue ([1]; imaging and biodistribution data): 6–10 fold
Bone (ROI) ([2]; 0.5 h): 1.3 ± 0.5 %ID/cc
Heart (ROI) ([2]; 0.5 h): 1.7 ± 0.5 %ID/cc
L. Kidney (ROI) ([2]; 0.5 h): 12.7 ± 1.6 %ID/cc
Liver (ROI) ([2]; 0.5 h): 1.4 ± 0.5 %ID/cc
Muscle (ROI) ([2]; 0.5 h): 0.8 ± 0.3 %ID/cc
R. Kidney (ROI) ([2]; 0.5 h): 12.0 ± 2.4 %ID/cc
Tumor + (ROI) ([2]; 0.5 h): 4.6 ± 1.7 %ID/cc
accumulation in the PSMA- tumor (PET/CT) ([2]; 0.5 h post-injection): no significant accumulation
Bone (ROI) ([2]; 1 h): 1.0 ± 0.5 %ID/cc
Heart (ROI) ([2]; 1 h): 1.2 ± 0.3 %ID/cc
L. Kidney (ROI) ([2]; 1 h): 12.2 ± 5.5 %ID/cc
Liver (ROI) ([2]; 1 h): 1.1 ± 0.3 %ID/cc
Muscle (ROI) ([2]; 1 h): 0.8 ± 0.4 %ID/cc
R. Kidney (ROI) ([2]; 1 h): 11.9 ± 3.0 %ID/cc
Tumor + (ROI) ([2]; 1 h): 4.4 ± 1.8 %ID/cc
Bone (ROI) ([2]; 1.5 h): 0.8 ± 0.4 %ID/cc
Heart (ROI) ([2]; 1.5 h): 1.0 ± 0.5 %ID/cc
L. Kidney (ROI) ([2]; 1.5 h): 12.2 ± 3.4 %ID/cc
Liver (ROI) ([2]; 1.5 h): 0.9 ± 0.4 %ID/cc
Muscle (ROI) ([2]; 1.5 h): 0.6 ± 0.4 %ID/cc
R. Kidney (ROI) ([2]; 1.5 h): 12.7 ± 2.9 %ID/cc
Tumor + (ROI) ([2]; 1.5 h): 5.2 ± 1.8 %ID/cc
Bone (ROI) ([2]; 4 h): 0.5 ± 0.3 %ID/cc
Heart (ROI) ([2]; 4 h): 0.5 ± 0.3 %ID/cc
L. Kidney (ROI) ([2]; 4 h): 8.8 ± 1.9 %ID/cc
Liver (ROI) ([2]; 4 h): 0.7 ± 0.4 %ID/cc
Muscle (ROI) ([2]; 4 h): 0.4 ± 0.2 %ID/cc
R. Kidney (ROI) ([2]; 4 h): 8.8 ± 2.3 %ID/cc
Tumor + (ROI) ([2]; 4 h): 5.2 ± 1.7 %ID/cc
Bone (ROI) ([2]; 25 h): 0.3 ± 0.2 %ID/cc
Heart (ROI) ([2]; 25 h): 0.1 ± 0.1 %ID/cc
L. Kidney (ROI) ([2]; 25 h): 4.0 ± 1.2 %ID/cc
Liver (ROI) ([2]; 25 h): 0.3 ± 0.2 %ID/cc
Muscle (ROI) ([2]; 25 h): 0.3 ± 0.3 %ID/cc
R. Kidney (ROI) ([2]; 25 h): 4.0 ± 1.2 %ID/cc
Tumor + (ROI) ([2]; 25 h): 3.3 ± 1.0 %ID/cc
probe remaining intact (urine metabolite analysis) [3]: > 93%
